Data from US20230313187A1, “MODIFICATIONS OF MAMMALIAN CELLS USING ARTIFICIAL MICRO-RNA TO ALTER THEIR PROPERTIES AND THE COMPOSITIONS OF THEIR PRODUCTS” (DNA TWOPOINTO INC., priority 2020, published 2023).
Where “and” joins values, the source holds several entries; their conditions need not be identical. Identical values can stand only once.

How the values were obtained:
[1] = system: Cricetulus griseus GDP-Mannose 4,6-dehydratase (GMD), and GDP-fucose transporter 1 (GFT) mRNA; assay: Inhibition of antibody fucosylation in CHO with amiRNA targeting GMD and GFT; format: cell-based; settings: 14-day fed batch
Source text: A multi-hairpin amiRNA gene was designed to target both Cricetulus griseus GDP-Mannose 4,6-dehydratase (GMD), and GDP-fucose transporter 1 (GFT). […]
Multi-hairpin amiRNA sequence with SEQ ID NO: 200 was placed to the 3′ of an open reading frame encoding a red fluorescent protein (with nucleotide sequence SEQ ID NO: 279) and followed by a rabbit globin polyadenylation sequence. […]

[2] = system: Homo sapiens GDP-Mannose 4,6-dehydratase (GMD) and GDP-fucose transporter 1 (GFT) mRNA; assay: Inhibition of antibody fucosylation in HEK cell pools, amiRNA directed toward GMD and GFT; format: cell-based; settings: HEK pool
Source text: A second multi-hairpin amiRNA gene was designed to target both Homo sapiens GDP-Mannose 4,6-dehydratase (GMD) with mRNA sequence given by SEQ ID NO: 8, and GDP-fucose transporter 1 (GFT) with mRNA sequence given by SEQ ID NO: 9. The multi-hairpin amiRNA, with nucleotide sequence SEQ ID NO: 204, comprised four hairpins; the first hairpin comprised guide strand sequence SEQ ID NO: 47 (complementary to the mRNA for human GMD, with sequence SEQ ID NO: 8), immediately followed by loop sequence SEQ ID NO: 241 and passenger strand sequence SEQ ID NO: 132; the second hairpin comprised guide strand sequence SEQ ID NO: 52 (complementary to the mRNA for human GFT, with sequence given by SEQ ID NO: 9), immediately followed by loop sequence SEQ ID NO: 241 and passenger strand sequence SEQ ID NO: 137; the third hairpin comprised guide strand sequence SEQ ID NO: 50 (complementary to the mRNA for human GFT, with sequence SEQ ID NO: 9), immediately followed by loop sequence SEQ ID NO: 241 and passenger strand sequence SEQ ID NO: 135 and the fourth hairpin comprised guide strand sequence SEQ ID NO: 49 (complementary to the mRNA for human GMD, with sequence given by SEQ ID NO: 8), immediately followed by loop sequence SEQ ID NO: 241 and passenger strand sequence SEQ ID NO: 134. Each passenger strand sequence was complementary to its corresponding guide strand sequence, except that the bases in the passenger strand sequences corresponding to the 5′ base of the guide strand and the twelfth base of the guide strand were changed to be non-complementary. The first and twelfth bases of guide strand with SEQ ID NO: 47 are T and G respectively, the corresponding bases in the corresponding passenger strand sequence SEQ ID NO: 132 are C and A respectively. […]
The multi-hairpin amiRNA sequences were placed to the 3′ of an open reading frame encoding a red fluorescent protein (with nucleotide sequence SEQ ID NO: 279) and followed by a rabbit globin polyadenylation sequence. […]

Molecule	G0 + G1 % (area) ([1]; afucosylated antibody heavy chain, CMV promoter)	G0F + G1F (% area) ([1]; fucosylated antibody heavy chain, BDL=below detection limit, listed as 200)	G0 + G1 % (area) ([2]; afucosylated antibody, 7-day transient culture)	Titer ([2]; antibody in culture supernatant, 7-day culture, listed as 204)	G0F + G1F (% area) ([2]; fucosylated antibody, 7-day transient culture, BDL=below detection limit, listed as 204)
SEQ ID NO: 200: four-hairpin amiRNA, two guides to Cricetulus griseus GMD mRNA (35, 36) and two to GFT mRNA (41, 42) (nucleic acid) ATCTGATCTTCTGAAGAAAATATATTTCTTTTTATTCATAGCTCTTAACTAGTGGTGATAGCAATGTCAGCAGTGCCTTTAAACTTCTTGATTTCCCAAAGTGAAGCCACAGATGTTTGGGAAATAAAGAAGTTTACAAGTAAGGTTGACCATACTCTACTCTAGTTATATTCTTTAGGCACGAATGTGTGTTTAAAAAAAATAAAAACTAGTGGTGATAGCAATGTCAGCAGTGCCTTCCTCTTAGATCATATTCCAAGGTGAAGCCACAGATGCTTGGAATATAATCTAAGAGGCAAGTAAGGTTGACCATACTCTACTCTAGAGTTGTGTTTTAATGTATATTAATGTTACTAATGTGTTTACTAGTGGTGATAGCAATGTCAGCAGTGCCTTTCAAGTAAAATGAGTATGTGAGTGAAGCCACAGATGTCACATACTCCTTTTACTTGACAAGTAAGGTTGACCATACTCTACTCTAGGTTATTTTTAGTATGATTCTGTAAAAATGAATTAATACTAACTAGTGGTGATAGCAATGTCAGCAGTGCCTTCAATTAGTGGGATCACAACCCGTGAAGCCACAGATGGGGTTGTGATACCACTAATTGCAAGTAAGGTTGACCATACTCTACTCTAGTCAGTTTTATTGATAGTCTTTTCAGTATTATTGATAATCTT	100 % (area)	no fucose was detectable by mass spectroscopy and BDL	–	–	–
SEQ ID NO: 204: four-hairpin amiRNA, two guides to Homo sapiens GMD mRNA (47, 49) and two to GFT mRNA (52, 50) (nucleic acid) ATCTGATCTTCTGAAGAAAATATATTTCTTTTTATTCATAGCTCTTAACTAGTGGTGATAGCAATGTCAGCAGTGCCTTAAAACATCTTGATTTCACAAAGTGAAGCCACAGATGTTTGTGAAATAAAGATGTTTTCAAGTAAGGTTGACCATACTCTACTCTAGTTATATTCTTTAGGCACGAATGTGTGTTTAAAAAAAATAAAAACTAGTGGTGATAGCAATGTCAGCAGTGCCTTATTACTTGTAAACACTGGTTCGTGAAGCCACAGATGGAACCAGTGTCTACAAGTAATCAAGTAAGGTTGACCATACTCTACTCTAGAGTTGTGTTTTAATGTATATTAATGTTACTAATGTGTTTACTAGTGGTGATAGCAATGTCAGCAGTGCCTTTCACTACTGTGCTGGCCCCGCGTGAAGCCACAGATGGCGGGGCCAGAACAGTAGTGACAAGTAAGGTTGACCATACTCTACTCTAGGTTATTTTTAGTATGATTCTGTAAAAATGAATTAATACTAACTAGTGGTGATAGCAATGTCAGCAGTGCCTTTGTTGTGTAACAACATAATTTGTGAAGCCACAGATGAAATTATGTTATTACACAACACAAGTAAGGTTGACCATACTCTACTCTAGTCAGTTTTATTGATAGTCTTTTCAGTATTATTGATAATCTT	–	–	100 % (area)	126 mg/L and 120 mg/L	complete abolition of antibody fucosylation and BDL
